PMC10787225 (Computational and Structural Biotechnology Journal, 2023)

What was measured:
β-wrapin AS10 [1] = experiment: 1H-15N HSQC NMR detection of β-hairpin formation upon AS10 binding; settings: 25 °C; for NMR signature of β-hairpin folding coupled to AS10 binding (1H–15N HSQC of 15N-AS10): 100 µM 15N-AS10 mixed with 20% molar excess of peptide, pH 7.4; for NMR β-hairpin: 100 µM 15N-AS10 with 20% molar excess of peptide, 20 mM sodium phosphate, pH 7.4, 50 mM NaCl
Protocol: The NMR spectra were acquired at 25 °C using VNMRS instruments (Varian) at proton frequencies of 800 and 900 MHz, each equipped with a cryogenically cooled Z-axis pulse-field-gradient (PFG) triple resonance probe. The sample buffer was 20 mM sodium phosphate, pH 7.4, 50 mM NaCl, supplemented with 10% D2O. For detection of complex formation, samples contained 100 μM ^15N-labeled AS10, expressed and purified as described, [43], and a 20% excess of the unlabeled peptide. For determination of β-sheet registries, NMR samples contained ^13C^15N-labeled fusion constructs in concentrations between 360–700 μM. Backbone assignments were obtained using BEST-TROSY experiments. Nuclear Overhauser effect (NOE) based distance restraints for β-sheet registry determination were derived from 3D (^1H–^1H-^15N)-NOESY-HSQC (120 ms mixing time) and (^1H–^13Cali-^1H)-HSQC-NOESY (100 ms mixing time) experiments. NMR data were processed using NMRPipe and analyzed with CcpNMR [50].
To test for β-hairpin formation in the peptides upon binding to AS10 we performed NMR spectroscopy. ^1H–^15N HSQC NMR spectroscopy using ^15N-labeled AS10 (^15N-AS10) and unlabeled binding partner leads to characteristic changes upon β-hairpin folding coupled to binding. These include a great increase in resonance dispersion, appearance of four amide proton resonances in the glycine region (^15N chemical shift <110 ppm) stemming from Gly-13 and Gly-14 in the two AS10-subunits, as well as appearance of amide proton resonances with shift values typical for β-sheet conformation (high ^1H and high ^15N chemical shifts).

[2] = Thioflavin T (ThT) aggregation assay; format: physicochemical; settings: for Shape of ThT time course / kind of aggregates: 20–550 µM peptide; for Shape of ThT time course / kind of aggregates / ThT / ThT fluorescence time course: 20 mM NaPi, pH 7.4, 50 mM NaCl, 37 °C; for ThT: peptide 20–550 µM, up to 85 h, 300 rpm, glass bead; for ThT / ThT fluorescence time course: 25 µM ThT, triplicate; for ThT fluorescence of peptide alone: 50 mM Tris, pH 8.5, 37 °C, 40 µM ThT
Protocol: All ThT aggregation assays were done in Greiner 96-well half-area, clear bottom, low-binding plates. The measurements themselves were done in a BMG CLARIOstar plate reader at 37 °C and 300 rpm shaking in orbital mode with one glass bead (0.75–1 mm, Roth) per well. Wells with samples were always surrounded by wells filled with liquid, either other samples or 150 μl water, to counter potential artefacts due to evaporation. […] Final concentrations of 25 µM ThT and 0.04% sodium azide (NaN3) were added. The plate was sealed with sealing tape and put into the plate reader, heated to 37 °C, and ThT fluorescence was read in 1000 cycles of 300 s each using bottom optics with excitation at 448 nm (10 nm bandwidth) and emission at 482 nm (10 nm bandwidth). […] Samples contained 40 µM ThT and 0.04% NaN3.
(§1) Fig. 4 Test set of eight protein segments. (A) List of the investigated peptides. Underlined stretches in the peptide sequences correspond to the predicted amyloidogenic β-hairpins. A peptide was considered ‘soluble’ when no visible precipitation occurred upon dissolution of the lyophilized peptide in 20 mM NaPi, pH 7.4, 50 mM NaCl, to a final concentration of 20 µM. […] (B) Conformations of investigated segments (red) in the context of their source proteins.

[3] = Solubility by visible precipitation upon dissolution of lyophilized peptide; settings: aqueous buffer, µM concentrations, neutral pH; visual
Protocol: as §1

[4] = Atomic force microscopy (AFM) of samples at the end of ThT aggregation assays; format: physicochemical; settings: for AFM aggregate morphology: end of ThT aggregation assay in 20 mM NaPi, pH 7.4, 50 mM NaCl, dried on mica; for AFM aggregate morphology of individual peptide: end of ThT assay at moderate peptide concentrations without ThT fluorescence, 50 mM Tris, pH 8.5
Protocol: (§2) For AFM imaging, 2 μl samples were taken out of the wells at the end of the ThT aggregation assays, put onto a freshly cleaved muscovite mica surface and dried during incubation for 10 min under the clean bench. Subsequently, the samples were washed with 100 μl ddH2O in three steps and dried with a stream of N2 gas. Imaging was performed in intermittent contact mode (AC mode) in a JPK NanoWizard 3 atomic force microscope using a silicon cantilever with silicon tip (OMCL-AC160TS-R3, Olympus) with a typical tip radius of 9 ± 2 nm, a force constant of 26 N/m and resonance frequency around 300 kHz. The images were processed using JPK DP Data Processing Software (version spm-5.0.84).

β-wrapin AS10 [5] = experiment: Isothermal titration calorimetry (ITC) of peptide binding to AS10; settings: 30 °C, 30 µM AS10 in cell, peptide titrated from syringe, 20 mM sodium phosphate, pH 7.4, 50 mM NaCl, 1:1 binding model
Protocol: ITC was performed at 30 °C using a Microcal iTC200 calorimeter (GE Healthcare). AS10 was filled into the cell at a concentration of 30 µM in 20 mM sodium phosphate, pH 7.4, 50 mM NaCl. Peptides were titrated from the syringe in approximately 10-fold higher concentrations. Heats of post-saturation injections were averaged and subtracted from each injection to correct for heats of dilution and mixing. Dissociation constants were obtained from a nonlinear least-squares fit to a 1:1 binding model using MicroCal Origin.

β-wrapin AS10 [6] = experiment: ITC; 30 µM AS10 in the cell, peptides titrated from the syringe at approximately 10-fold higher concentrations; 30 °C; 20 mM sodium phosphate, pH 7.4, 50 mM NaCl; fit to a 1:1 binding model
PAP(248−286) = experiment: ThT aggregation assay and AFM of PAP(248−286) in presence of added peptide; format: biochemical, human; settings: 500 µM PAP(248−286), added peptide 25–100 µM, 50 mM Tris, pH 8.5, 37 °C, 40 µM ThT
Protocol: (§3) All ThT aggregation assays were done in Greiner 96-well half-area, clear bottom, low-binding plates. The measurements themselves were done in a BMG CLARIOstar plate reader at 37 °C and 300 rpm shaking in orbital mode with one glass bead (0.75–1 mm, Roth) per well. Wells with samples were always surrounded by wells filled with liquid, either other samples or 150 μl water, to counter potential artefacts due to evaporation. […] Final concentrations of 25 µM ThT and 0.04% sodium azide (NaN3) were added. The plate was sealed with sealing tape and put into the plate reader, heated to 37 °C, and ThT fluorescence was read in 1000 cycles of 300 s each using bottom optics with excitation at 448 nm (10 nm bandwidth) and emission at 482 nm (10 nm bandwidth). […] PAP(248−286) and SEM1(86−107) were kept at constant concentrations of 500 and 300 µM, respectively. […] Samples contained 40 µM ThT and 0.04% NaN3.
as §2

SEM1(86−107) = experiment: ThT aggregation assay and AFM of SEM1(86−107) in presence of added peptide; format: biochemical, human; settings: 300 µM SEM1(86−107), added peptide 25–100 µM, 50 mM Tris, pH 8.5, 37 °C, 40 µM ThT
Protocol: as §3, §2

[7] = peptide alone 25–100 µM (up to 100 µM)

3-PGDH(298−319): synthetic peptide of predicted β-hairpin-forming amyloidogenic segment 298−319 of 3-PGDH (EIAVQFVDMVKGKSLTGVVNAQ; UniProt O43175 298-319, looked up, fragment)
NMR signature of β-hairpin folding coupled to AS10 binding (1H–15N HSQC of 15N-AS10) (β-wrapin AS10 [1]): no change
Shape of ThT time course / kind of aggregates [2]: can form both ThT-positive as well as ThT-negative aggregates
ThT [2]: +
Precipitate formation upon dissolution [3]: immediate precipitate formation upon dissolution

CYP2W1(176−204): synthetic peptide of predicted β-hairpin-forming amyloidogenic segment 176−204 of CYP2W1 (SNITFALLFGRRFDYRDPVFVSLLGLIDE)
NMR signature of β-hairpin folding coupled to AS10 binding (1H–15N HSQC of 15N-AS10) (β-wrapin AS10 [1]): signature was also observed
NMR β-hairpin (β-wrapin AS10 [1]): +
Shape of ThT time course / kind of aggregates [2]: ThT fluorescence was high from the beginning
ThT [2]: +
Precipitate formation upon dissolution [3]: immediate precipitation
AFM aggregate morphology [4]: fibrillar aggregates confirming amyloid formation were detected

MIC26(153−178): synthetic peptide of predicted β-hairpin-forming amyloidogenic segment 153−178 of MIC26 (QQAIVFAQVSGERLYDWGLRGYIVIE; UniProt Q9BUR5 153-178, looked up, fragment)
NMR signature of β-hairpin folding coupled to AS10 binding (1H–15N HSQC of 15N-AS10) (β-wrapin AS10 [1]): no change
Shape of ThT time course / kind of aggregates [2]: ThT fluorescence was high from the beginning
ThT [2]: +
Precipitate formation upon dissolution [3]: immediate precipitation
AFM aggregate morphology [4]: fibrillar aggregates confirming amyloid formation were detected

NBPF1(928−946): synthetic peptide of predicted β-hairpin-forming amyloidogenic segment 928−946 of NBPF1 (RSAFYILEQQRVGWALDMD)
Affinity to AS10 (dissociation constant KD) (β-wrapin AS10 [5]): heat signals were not observed
NMR signature of β-hairpin folding coupled to AS10 binding (1H–15N HSQC of 15N-AS10) (β-wrapin AS10 [1]): no change
ThT fluorescence time course ([2]; 20–25 µM peptide): no increase in fluorescence intensity was detected
ThT fluorescence time course ([2]; peptide increased to 500–550 µM): remained ThT negative

NDUFS7(104−129) (from UniProt O75251 104-129) (peptide)
Kd (β-wrapin AS10 [6]): 4.7 µM

PAP Str1(186−194): β-strand peptide, constituent segment 186−194 of PAP(185−208) (DFIATLGKL)
ThT fluorescence of peptide alone [2, 7]: concentration-dependent increase in ThT fluorescence within minutes to a few hours
Effect of added peptide on ThT time trace of PAP(248−286) (PAP(248−286)): ThT time traces exhibited additional phases of rapid growth
Effect of added peptide on ThT time trace of SEM1(86−107) (SEM1(86−107)): ThT time traces exhibited additional phases of rapid growth

PAP Str2(200−208): β-strand peptide, constituent segment 200−208 of PAP(185−208)
ThT fluorescence of peptide alone [2, 7]: do not exhibit ThT fluorescene
Effect of added peptide on ThT time trace of PAP(248−286) (PAP(248−286)): induced increases in ThT fluorescence, albeit with somewhat longer lag-times
Effect of added peptide on ThT time trace of SEM1(86−107) (SEM1(86−107)): induced increases in ThT fluorescence, albeit with somewhat longer lag-times

PAP(248−286): PAP fragment which forms functional amyloid in semen (GIHKQKEKSRLQGGVLVNEILNHMKRATQIPSYKKLIMY) [reference compound]
ThT fluorescence of peptide alone ([2]; peptide alone 500 µM): did not exhibit ThT fluorescence
AFM aggregate morphology of individual peptide [4]: aggregates of amorphous shape

SEM1(86−107): semen amyloid peptide, fragment of semenogelin-1 (DLNALHKTTKSQRHLGGSQQLL) [reference compound]
ThT fluorescence of peptide alone ([2]; peptide alone 300 µM): did not exhibit ThT fluorescence
AFM aggregate morphology of individual peptide [4]: aggregates of amorphous shape

TTC5(335−361): synthetic peptide of predicted β-hairpin-forming amyloidogenic segment 335−361 of TTC5 (AVILGKVVFSLTTEEKVPFTFGLVDSD)
Kd (β-wrapin AS10 [5]; read-out: Affinity to AS10 (dissociation constant KD)): 4.7 ± 0.9 µM
NMR signature of β-hairpin folding coupled to AS10 binding (1H–15N HSQC of 15N-AS10) (β-wrapin AS10 [1]): signature was observed
NMR β-hairpin (β-wrapin AS10 [1]): +
ThT [2]: +

AVILGKVVFSLTTEEKVPFTFGLVDSD [TTC5(335−361)]
Kd (β-wrapin AS10 [6]): 4.7 µM

KDFIATLGKLSGLHGQDLFGIWSK [PAP(185−208)]
Kd (β-wrapin AS10 [6]): 39 µM
